The target in experiment [1] is acetylcholine receptor. Description: SPR, peptide at 10 µM on acetylcholine receptor.
The target of experiment [2] is acetylcholine receptor. Description: SPR, AchR immobilised, peptide 10 uM.

Molecule RQQYK [5mer-52] had a Binding affinity (RU) in the experiment with acetylcholine receptor [1] of 50 RU.

In the experiment with acetylcholine receptor [1], RGFRK [5mer-357] showed a Binding affinity (RU) of 54 RU.

Regarding KSRTR [5mer-80], in the experiment with acetylcholine receptor [1], the Binding affinity (RU) came to 83 RU.

As for KGQLR [5mer-376], the Binding affinity (RU) with acetylcholine receptor [1] worked out at 65 RU.

For the molecule KRYLK [5mer-380], the Binding affinity (RU) with acetylcholine receptor [1] is 82 RU.

In turn, RKDHAR [6mer-1-1129] registered a Binding affinity (RU) with acetylcholine receptor [2] of 39 RU.

Molecule RSLQR [5mer-51] had a Binding affinity (RU) with acetylcholine receptor [1] of 70 RU.

In the experiment with acetylcholine receptor [1], KWVSK [5mer-58] had a Binding affinity (RU) of 75 RU.

The molecule KVVTR [5mer-64] showed a Binding affinity (RU) with acetylcholine receptor [1] of 76 RU.

KGFSR [5mer-83] registered a Binding affinity (RU) in the experiment with acetylcholine receptor [1] of 64 RU.

In the experiment with acetylcholine receptor [1], RLVRK [5mer-352] registered a Binding affinity (RU) of 76 RU.

In the experiment with acetylcholine receptor [1], KQLCR [5mer-375] registered a Binding affinity (RU) of 84 RU.

In turn, RGFTR [5mer-369] displayed a Binding affinity (RU) in the experiment with acetylcholine receptor [1] of 84 RU.

Regarding RLRQR [5mer-382], the Binding affinity (RU) with acetylcholine receptor [1] is 62 RU.

RQLQK [5mer-366]: in the experiment with acetylcholine receptor [1], the Binding affinity (RU) was 52 RU.

RLFTK [5mer-60] came in with a Binding affinity (RU) with acetylcholine receptor [1] of 86 RU.

In the case of KRFCK [5mer-56], the Binding affinity (RU) in the experiment with acetylcholine receptor [1] came to 59 RU.

KWRRK [5mer-370] returned a Binding affinity (RU) with acetylcholine receptor [1] of 67 RU.

Molecule KVICK [5mer-78] gave a Binding affinity (RU) with acetylcholine receptor [1] of 79 RU.

The molecule KSRLR [5mer-379] came in with a Binding affinity (RU) with acetylcholine receptor [1] of 79 RU.

RLVTR [5mer-53] had a Binding affinity (RU) with acetylcholine receptor [1] of 50 RU.

With KGQRR [5mer-381], in the experiment with acetylcholine receptor [1], the Binding affinity (RU) stood at 87 RU.

KKKKPK [6mer-1-1128] had a Binding affinity (RU) with acetylcholine receptor [2] of 39 RU.

In turn, RRFSR [5mer-55] gave a Binding affinity (RU) with acetylcholine receptor [1] of 58 RU.

Molecule KSFSK [5mer-351] yielded a Binding affinity (RU) with acetylcholine receptor [1] of 75 RU.

RSRSR [5mer-69] yielded a Binding affinity (RU) with acetylcholine receptor [1] of 50 RU.

Molecule KQVLR [5mer-356] had a Binding affinity (RU) in the experiment with acetylcholine receptor [1] of 65 RU.

In the case of RLILK [5mer-61], the Binding affinity (RU) in the experiment with acetylcholine receptor [1] is 66 RU.

On to KRIRR [5mer-368], for which the Binding affinity (RU) with acetylcholine receptor [1] turned out to be 50 RU.

On to RGIYR [5mer-81], for which, in the experiment with acetylcholine receptor [1], the Binding affinity (RU) stood at 79 RU.

In the case of RSQTR [5mer-354], the Binding affinity (RU) in the experiment with acetylcholine receptor [1] came out at 64 RU.

Consider RKDNIK [6mer-1-1131], for which the Binding affinity (RU) with acetylcholine receptor [2] is 42 RU.

Molecule KQLTK [5mer-62] returned a Binding affinity (RU) with acetylcholine receptor [1] of 70 RU.

For RWITR [5mer-364], the Binding affinity (RU) with acetylcholine receptor [1] was determined as 62 RU.

With KQLYR [5mer-57], in the experiment with acetylcholine receptor [1], the Binding affinity (RU) came to 73 RU.

With KWRTR [5mer-49], the Binding affinity (RU) with acetylcholine receptor [1] came to 62 RU.

For RLLRK [5mer-63], the Binding affinity (RU) with acetylcholine receptor [1] stood at 86 RU.

As to KWLQR [5mer-54], the Binding affinity (RU) with acetylcholine receptor [1] stood at 66 RU.

In the experiment with acetylcholine receptor [1], KLYRR [5mer-72] displayed a Binding affinity (RU) of 50 RU.

For RQLCK [5mer-360], in the experiment with acetylcholine receptor [1], the Binding affinity (RU) was 66 RU.

As to RQIRR [5mer-65], the Binding affinity (RU) in the experiment with acetylcholine receptor [1] came to 67 RU.

In turn, RSYQR [5mer-361] displayed a Binding affinity (RU) with acetylcholine receptor [1] of 58 RU.

RWFLR [5mer-79]: the Binding affinity (RU) with acetylcholine receptor [1] is 82 RU.

Take KQVYR [5mer-349]: the Binding affinity (RU) with acetylcholine receptor [1] was found to be 50 RU.

RQLYR [5mer-67] gave a Binding affinity (RU) in the experiment with acetylcholine receptor [1] of 86 RU.

With KLQYR [5mer-59], the Binding affinity (RU) with acetylcholine receptor [1] was determined as 68 RU.

Molecule RGFYK [5mer-68] gave a Binding affinity (RU) with acetylcholine receptor [1] of 82 RU.

Turning to KRVRK [5mer-363], the Binding affinity (RU) in the experiment with acetylcholine receptor [1] came out at 59 RU.

As for KLQSK [5mer-71], the Binding affinity (RU) with acetylcholine receptor [1] was determined as 68 RU.

Consider RQRYK [5mer-82], for which the Binding affinity (RU) with acetylcholine receptor [1] came out at 84 RU.

Molecule KVFTK [5mer-373] showed a Binding affinity (RU) with acetylcholine receptor [1] of 87 RU.

Turning to KRFQK [5mer-359], in the experiment with acetylcholine receptor [1], the Binding affinity (RU) came out at 79 RU.

As to RGISK [5mer-371], the Binding affinity (RU) with acetylcholine receptor [1] was determined as 86 RU.

KGFYK [5mer-377] showed a Binding affinity (RU) with acetylcholine receptor [1] of 67 RU.

As for KLLYR [5mer-355], the Binding affinity (RU) with acetylcholine receptor [1] was 87 RU.

With RSVCR [5mer-372], in the experiment with acetylcholine receptor [1], the Binding affinity (RU) worked out at 54 RU.

In the experiment with acetylcholine receptor [1], KLLCR [5mer-50] registered a Binding affinity (RU) of 63 RU.

In the experiment with acetylcholine receptor [1], RSVQK [5mer-367] showed a Binding affinity (RU) of 71 RU.

The molecule KLFTR [5mer-374] yielded a Binding affinity (RU) in the experiment with acetylcholine receptor [1] of 75 RU.

Turning to RKATFR [6mer-1-1130], the Binding affinity (RU) with acetylcholine receptor [2] was 31 RU.

As for RLLQR [5mer-70], in the experiment with acetylcholine receptor [1], the Binding affinity (RU) amounted to 69 RU.

As for KRLLR [5mer-66], the Binding affinity (RU) with acetylcholine receptor [1] stood at 80 RU.

As to RGYRR [5mer-76], the Binding affinity (RU) with acetylcholine receptor [1] is 80 RU.

In the experiment with acetylcholine receptor [1], RRLSK [5mer-378] yielded a Binding affinity (RU) of 65 RU.

For the molecule KQRLK [5mer-362], the Binding affinity (RU) with acetylcholine receptor [1] was determined as 62 RU.

For the molecule KSYYK [5mer-350], the Binding affinity (RU) in the experiment with acetylcholine receptor [1] turned out to be 59 RU.

Take KVQTK [5mer-75]: in the experiment with acetylcholine receptor [1], the Binding affinity (RU) worked out at 63 RU.

Turning to KVRSK [5mer-358], the Binding affinity (RU) in the experiment with acetylcholine receptor [1] amounted to 50 RU.

The molecule RQITK [5mer-74] came in with a Binding affinity (RU) with acetylcholine receptor [1] of 87 RU.

Regarding KWRQK [5mer-77], in the experiment with acetylcholine receptor [1], the Binding affinity (RU) amounted to 74 RU.

In the experiment with acetylcholine receptor [1], KRRYK [5mer-365] came in with a Binding affinity (RU) of 52 RU.

Turning to KSQLK [5mer-353], the Binding affinity (RU) with acetylcholine receptor [1] was found to be 59 RU.

The record behind these values is patent US20250011363A1, “OPTIMIZED SHORTENED PEPTIDE THAT BINDS TO ACETYLCHOLINE RECEPTOR, AND USE THEREOF” (SKINMED CO., LTD., priority 2021, published 2025).
